Results taken from patent US20200362047A1 (CRESCENDO BIOLOGICS, published 2020).
One block for each binder: values may come before it.

What was measured:
[1] = target: T1, PSMA-his (R&D Systems cat no. 4234-ZN) (human, UniProt Q04609 44-750); assay: BLI (Octet RED384), PSMA-his amine-coupled to AR2G sensors, 1:1 model
T1 construct: Bought protein; also called Human PSMA; not shown: His tag
Procedure: The kinetics of monovalent and bispecific Humabody VH were determined on a ForteBio Octet RED 384 instrument. To study the interaction with the antigens, CD137-Fc tag protein (Acro Biosystems cat no. 41B-H5258) or PSMA-his (R&D Systems cat no. 4234-ZN) was immobilised onto AR2G biosensors (ForteBio cat no. 18-5082) by amine coupling. Monovalent VH and bispecific molecules were serially diluted (typically 1:2 dilution series starting between 12-25 nM, at the highest concentration) in kinetics buffer (0.1% BSA, 0.02% Tween, 1×PBS) and binding to the immobilised proteins was studied during the association and dissociation phases. PSMA binding was measured using 180 seconds association and 600 seconds dissociation phases. CD137 binding was measured 180 seconds association and 600 seconds dissociation phases. Reference subtracted data were fitted to a 1:1 binding model using the ForteBio Octet Data Analysis software.

[2] = target: T2, human PSMA expressed on cells (human, UniProt Q04609 1-750); assay: FMAT, DU145 PSMA cells
T2 construct: One molecule for both cell lines (CHO human PSMA, DU145 PSMA); the cell line stands under assay; also called CHO human PSMA; CHO PSMA
Procedure: (§1) Binding of His-tagged molecules to CHO human CD137, CHO parent, CHO human PSMA, DU145 PSMA and DU145 parent cells was assessed using Fluorescence Microvolume Assay Technology (FMAT). All reagents were prepared in FMAT assay buffer (pH 7.4) containing PBS, 0.1% Bovine Serum Albumin, 0.05% Sodium Azide. Serially diluted samples were transferred into 384 well black clear-bottomed assay plates (Costar cat. no. 3655) and incubated for a minimum of 2 hours at room temperature with 1.5 nM Anti-His (Millipore cat. no. 05-949), […] Goat Anti-Mouse Alexa Fluor-488 (Jackson ImmunoResearch cat. no. 115-545-071) and 2000 cells/well pre-stained with DRAQ5 (Thermo Scientific cat. no. 62251). Fluorescence emission was then measured on the TTP Mirrorball plate reader in the FL2 (502 nm-537 nm) and FL5 (677-800 nm) channels following excitation at 488 nm and 640 nm. Data was gated on FL5 perimeter and peak intensity and the FL2 median mean fluorescence intensity of the gated data used for determination of VH binding. Monovalent CD137 specific Humabody® VH, bispecific and trispecific molecules with a CD137 binding arm bound to CHO CD137 expressing cells. Monovalent PSMA specific Humabody® VH, bispecific and trispecific molecules with a PSMA binding arm bound to PSMA expressing cells.

[3] = target: T2, human PSMA expressed on cells; assay: FMAT, CHO human PSMA cells
Procedure: as §1

[4] = target: T3, human GITR-Fc (R&D Systems cat no. 689-GR) (human, UniProt Q9Y5U5 26-161); assay: ELISA, coated GITR-Fc
T3 construct: Bought protein; also called GITR (Glucocorticoid-induced TNFR-related); not shown: Fc tag
T3 sequence (looked up): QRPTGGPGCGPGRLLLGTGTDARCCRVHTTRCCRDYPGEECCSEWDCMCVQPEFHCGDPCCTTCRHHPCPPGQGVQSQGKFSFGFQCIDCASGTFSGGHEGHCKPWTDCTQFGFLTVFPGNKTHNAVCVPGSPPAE
Procedure: (§2) Specificity of binding for CD137 over the tumour necrosis factor receptor family members OX40 and GITR (Glucocorticoid-induced TNFR-related) was determined using an ELISA assay. Nunc Maxisorp plates were coated with 1 ug/ml human CD137-Fc recombinant protein (Acro Biosystems 41B-H5258), human GITR-Fc (R&D Systems cat no. 689-GR) human OX40-Fc (R&D Systems cat no. 3388-OX) in sodium carbonate buffer overnight at 4° C. then washed twice with PBS. Non-specific protein interactions were blocked by incubation with 1% (w/v) skimmed milk powder (Marvel®) in PBS/0.1% Tween-20 for 1 hour at room temperature. Plates were washed twice with PBS then VH or antibody control (1 ug/ml) added for 1 hour at room temperature. Following three washes with PBS/0.1% Tween-20 a 1:1000 dilution of anti His-HRP (VH detection) or anti mouse-HRP (positive control mouse monoclonal antibody detection) was added in 1% Marvel/PBS/0.1% Tween-20. The detection antibodies were allowed to bind for 1 hour at room temperature then the plates were washed twice in PBS/0.1% Tween-20 and once in PBS. The ELISA was developed using TMB substrate and the reaction was stopped by the addition of 50 ul 0.5M H₂SO₄ solution. The absorbance at 450 nm was measured using the BMG Pherastar.

[5] = target: T4, mouse CD137Fc protein (Acro Biosystems 41B-M5258) (mouse, UniProt P20334 24-187); assay: HTRF binding assay
T4 construct: Bought protein; also called mouse CD137 protein; not shown: Fc tag, detected with anti human-Fc
T4 sequence (looked up): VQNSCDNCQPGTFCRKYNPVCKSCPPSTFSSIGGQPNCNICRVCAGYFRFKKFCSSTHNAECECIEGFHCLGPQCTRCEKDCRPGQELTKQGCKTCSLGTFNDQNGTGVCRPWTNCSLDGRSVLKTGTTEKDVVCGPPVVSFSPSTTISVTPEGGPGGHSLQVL
Procedure: (§3) Binding to human CD137Fc recombinant protein (Acro Biosystems 41B-H5258), rhesus CD137Fc recombinant protein (Sino Biologicals cat no. 90847-K02H) and mouse CD137Fc protein (Acro Biosystems 41B-M5258) was measured using an HTRF Binding assay format. All reagents and serially diluted VH were prepared in assay buffer containing PBS, 0.1% BSA and 0.4M Potassium Fluoride. Samples or assay buffer (non-specific binding) were incubated with 0.5 nM human, rhesus or mouse CD137, 1 nM Anti human-Fc Cryptate PAb (Cisbio cat. no. 61HFCKLB) and 20 nM anti His-D2 (CisBio cat no 61HISDLA) in black 384-shallow well assay plates for a minimum of 3 hours at room temperature. Time-resolved fluorescent emission at 620 nm and 665 nm was measured following excitation at 337 nm on the BMG PHERAstar plate reader. The HTRF ratio were calculated ((665 nm emission/620 nm emission)*10000) and the data corrected for (non-specific binding) to give the specific binding signal. VH bound to human and rhesus CD137 but not to mouse CD137 protein.

[6] = target: T5, rhesus CD137Fc recombinant protein (Sino Biologicals cat no. 90847-K02H) (rhesus; human, UniProt H9Z8K9 24-186); assay: HTRF binding assay
T5 construct: Bought protein; also called rhesus CD137-human IgG1 Fc tagged protein; not shown: human IgG1 Fc tag
T5 sequence: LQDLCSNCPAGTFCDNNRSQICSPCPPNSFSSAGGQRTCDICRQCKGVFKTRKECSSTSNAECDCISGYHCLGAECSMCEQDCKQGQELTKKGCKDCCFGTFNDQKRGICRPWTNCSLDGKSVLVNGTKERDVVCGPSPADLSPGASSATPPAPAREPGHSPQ
Procedure: as §3

[7] = target: T6, human CD137-human Fc chimeric protein (Acro Biosystems cat no. 41B-H5258) (human, UniProt Q07011 24-186); assay: HTRF binding assay
T6 construct: Bought protein; The Octet Protein G and Biacore experiments name no catalogue number; also called human CD137Fc recombinant protein; human CD137-Fc recombinant protein; not shown: human IgG1 Fc tag
Procedure: as §3

[8] = target: T7, human CD137 expressed on the surface of CHO cells (human, UniProt Q07011 24-255); assay: FMAT, CHO human CD137 cells
T7 construct: Also used for the Jurkat reporter cells that express human CD137 (functional rows); also called CHO human CD137 cells; CHO huCD137
Procedure: as §1

[9] = target: T8, human OX40-Fc (R&D Systems cat no. 3388-OX) (human, UniProt P43489 29-216); assay: ELISA, coated OX40-Fc
T8 construct: Bought protein; not shown: Fc tag
T8 sequence (looked up): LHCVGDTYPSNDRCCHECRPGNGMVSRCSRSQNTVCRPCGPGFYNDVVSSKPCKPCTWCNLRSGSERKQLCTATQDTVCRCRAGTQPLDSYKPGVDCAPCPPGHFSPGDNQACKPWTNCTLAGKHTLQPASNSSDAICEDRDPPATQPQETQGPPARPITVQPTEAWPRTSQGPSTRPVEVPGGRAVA
Procedure: as §2

[10] = target: T9, CD137 on pre-stimulated human CD8+ T cells (human, UniProt Q07011 24-255); assay: flow cytometry, PMA/ionomycin-stimulated human CD8+ T cells, mean of 2-3 donors
T9 construct: also called pre-stimulated CD8+ cells; primary T cells
Procedure: Binding to primary T cells was measured using flow cytometry. Peripheral blood mononuclear cells (PBMCs) were isolated from human blood by density gradient centrifugation then CD8+ T cells purified using a negative selection isolation kit according to the manufacturer's protocol (Miltenyi Biotech cat no 130-042-401). T-cells were stimulated PMA/Ionomycin for 48-72 hours in RPMI media supplemented with 10% FBS, 2 mM Glutamine, 1× Pen/Strep. Cells were transferred into 96 well plates, blocked for 10 mins with staining buffer (PBS/1% BSA/0.05% Sodium Azide) then incubated with serially diluted VH in staining buffer (PBS/1% BSA) for 30 mins-1 hour at 4° C. Cells were washed by centrifugation then VH binding detected using Anti His antibody (Millipore 05-949) and Goat Anti Mouse Alexa Fluor-488 (Jackson ImmunoResearch cat no. 115-545-071). A Live Dead near IR stain (Molecular Probes cat no. L10119) was used for discrimination of live cells. After further washing cells were fixed and fluorescence measured by flow cytometry.

T1 sequence (Q04609 44-750 limits assumed): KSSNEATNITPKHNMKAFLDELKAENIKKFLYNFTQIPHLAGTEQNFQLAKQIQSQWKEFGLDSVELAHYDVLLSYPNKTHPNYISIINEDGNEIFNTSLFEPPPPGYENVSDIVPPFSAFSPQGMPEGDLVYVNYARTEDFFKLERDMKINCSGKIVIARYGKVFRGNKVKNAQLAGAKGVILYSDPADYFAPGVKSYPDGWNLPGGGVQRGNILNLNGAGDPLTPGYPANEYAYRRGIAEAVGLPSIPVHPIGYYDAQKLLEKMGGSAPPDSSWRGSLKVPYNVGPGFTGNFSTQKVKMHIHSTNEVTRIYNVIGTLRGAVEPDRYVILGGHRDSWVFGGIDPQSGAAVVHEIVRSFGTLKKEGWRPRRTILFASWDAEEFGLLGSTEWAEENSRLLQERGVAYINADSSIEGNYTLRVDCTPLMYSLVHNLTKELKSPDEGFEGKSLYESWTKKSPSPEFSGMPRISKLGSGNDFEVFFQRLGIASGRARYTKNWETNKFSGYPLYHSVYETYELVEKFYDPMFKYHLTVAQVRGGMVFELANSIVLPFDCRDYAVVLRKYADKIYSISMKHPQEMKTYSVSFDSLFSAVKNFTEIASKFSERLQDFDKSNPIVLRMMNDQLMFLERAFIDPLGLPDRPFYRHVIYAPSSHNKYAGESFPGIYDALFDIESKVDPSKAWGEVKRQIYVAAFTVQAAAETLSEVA
T2 sequence (Q04609 whole entry): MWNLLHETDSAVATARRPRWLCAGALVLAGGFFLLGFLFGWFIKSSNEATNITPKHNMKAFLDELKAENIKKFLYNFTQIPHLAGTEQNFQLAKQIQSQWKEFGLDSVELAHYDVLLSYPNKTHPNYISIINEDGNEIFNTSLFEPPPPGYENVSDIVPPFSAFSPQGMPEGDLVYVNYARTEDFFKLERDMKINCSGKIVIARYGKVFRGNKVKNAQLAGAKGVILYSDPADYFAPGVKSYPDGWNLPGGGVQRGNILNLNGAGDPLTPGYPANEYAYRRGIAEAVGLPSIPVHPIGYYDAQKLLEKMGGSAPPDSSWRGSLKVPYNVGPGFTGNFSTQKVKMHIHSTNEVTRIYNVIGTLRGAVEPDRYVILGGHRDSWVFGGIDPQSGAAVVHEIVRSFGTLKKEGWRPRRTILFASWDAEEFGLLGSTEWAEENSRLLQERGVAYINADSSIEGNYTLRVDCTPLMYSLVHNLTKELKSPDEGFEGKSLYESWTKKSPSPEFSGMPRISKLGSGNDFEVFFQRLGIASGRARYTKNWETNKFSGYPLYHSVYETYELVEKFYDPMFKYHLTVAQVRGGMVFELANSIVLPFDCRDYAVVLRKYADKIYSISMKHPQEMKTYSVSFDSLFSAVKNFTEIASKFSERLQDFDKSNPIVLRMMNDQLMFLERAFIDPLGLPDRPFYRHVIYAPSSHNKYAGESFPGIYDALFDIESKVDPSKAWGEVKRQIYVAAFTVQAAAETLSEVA
T7 sequence (Q07011 24-255 limits assumed): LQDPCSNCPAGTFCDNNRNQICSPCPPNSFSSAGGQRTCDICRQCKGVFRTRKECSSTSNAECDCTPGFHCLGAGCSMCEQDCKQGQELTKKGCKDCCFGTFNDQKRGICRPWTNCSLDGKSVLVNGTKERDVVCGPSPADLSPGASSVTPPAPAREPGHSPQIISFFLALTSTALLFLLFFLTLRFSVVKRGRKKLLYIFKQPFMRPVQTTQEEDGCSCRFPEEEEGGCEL
T9 sequence (Q07011 24-255 limits assumed): as above

Kd [1]: 0.53 nM | koff [1]: 0.00016 s⁻¹ | kon [1]: 310000 M⁻¹ s⁻¹ | EC50 [2]: 0.19 nM | EC50 [3]: 0.17 nM
B1: PSMA binding single VH domain antibody 4.1 (VHH)
VHH: EVQLVESGGGVVQPGRSLRLSCAASGFSFSGYGMHWVRQAPGKGLEWVAYISYDGSNKYYADSVKGRFTISRDNSKNTLYLQMNSLRAEDTAVYYCAKDPAWGLRLGESSSYDFDIWGQGTMVTVSS
notes: human single VH domain, PSMA specific

binding result [4]: no binding (tested: 1 ug/ml) | binding result [5]: no binding | EC50 [6]: 0.56 nM | EC50 [7]: 0.91 nM | EC50 [8]: 0.18 nM | binding result [9]: no binding (tested: 1 ug/ml) | EC50 [10]: 0.74 nM
B2: Humabody VH 2.2 (VHH)
VH: EVQLVESGGGLVKPGGSLRVSCAASGFTFSDYYMSWFRQAPGKGLEWVSYISGSGDIIDYADSVKGRFTISRDNAKNSLYLQMNSLRAEDTAVYHCAKEDSRIPGTTDFDNWGQGTLVTVSSHHHHHH
notes: human single VH domain

EC50 [8]: 0.58 nM | EC50 [2]: 0.36 nM | EC50 [3]: 0.32 nM
B3: 4.1-6GS-1.1-6GS-VH (MSA) (bispecific antibody)
chain: EVQLVESGGGVVQPGRSLRLSCAASGFSFSGYGMHWVRQAPGKGLEWVAYISYDGSNKYYADSVKGRFTISRDNSKNTLYLQMNSLRAEDTAVYYCAKDPAWGLRLGESSSYDFDIWGQGTMVTVSSGGGGSGGGGSGGGGSGGGGSGGGGSGGGGSEVQLVESGGGLVQPGGSLRLSCAASGFTFSSHWMTWFRQAPGKGLEWVAHIKEDGSEKYYEDSVEGRFTVSRDNAKNSVYLQMNSLRAEDTAVYYCARGGDGYSDSHFGVDVWGQGTTVTVSSGGGGSGGGGSGGGGSGGGGSGGGGSGGGGSQVQLVESGGGLVQPGGSLRLSCAASGFTFSSYAMSWVRQAPGKGLEWVATISDSGSSADYADSVKGRFTISRDNSKNTLYLQMNSLRAEDTAVYYCARGRYNWNPRALGIWGQGTMVTVSS
notes: trispecific tandem VH (PSMA, CD137, mouse serum albumin); also called 4.1-6GS-1.1-VH (MSA); 4.1-6GS-1.1-6GS-MSA; not shown: His tag
